B1: Flag-CNK^2–549 [Drosophila] / GST-HYP [Drosophila] (parent complex)
chain 1: AYINIAEWTPDQVTDWIKGLDESMKGYLYEFSKQEIGGRALLNIRPYELENLGMLRIGHQEIVLEAVENLRNFHYHLKNDNLQFMALHVATAAKNLHRELARNHAESTKIDTRILHDITRTIATLKPLVGSLERTPFRKQEMYREYCGNVLKCGLELATIAHRDRFALQPVPAIRQSAERLENLANFVIQDISDPMVLQPASLNLVTLKKRESELGFNIESSYNGIHRVTDIKYNSPAHNSGKIEDGDEIVQINYQTVVGWQHRTVLEHLREALPDVVLTVKKRPKHTKMFGQIYMQPYRLPSKKRNMAARWAAQMPSPRAAFLTLDTEQLATGGTGSAVPDPSKSLSSEKREVLTKANPVSSASDSDSSCSDIPTPTDPKLAAREIRLYYPKPRALLQRRNTICGCEYLSLKNSDLVVPSWHERKPGIGSPTNCDPGSPSIRDKSISFGYGLEMAARPTTCIGIAGDTSTDKARRMFHEARKLKQLTEDSQREFLVDRYKPGVSKVVRFDAKEDYVMKNEKFICNVENTILETFEPIPFADEGDEDA
chain 2: MGEETINSTQNKTRTKTTRPKAVYLWTVSDVLKWYRRHCGEYTQYEQLFAQHDITGRALLRITDSSLQRMGVTDNRDREAIWREIVKQRLKTDIMEIRDMERLNIY

In one test the parent is B1. The test is described as follows: GST pull-down, immunoblot quantification; S2 cells; GST-HYP + RRKM co-expressed; anti-Flag (CNK) blot; parent: 1. (A western blot detects proteins with antibodies after separation by electrophoresis.)
As to chain 1 AYINIAEWTPDQVTDWIKGLDESMKGYLYEFSKQEIGGRALLNIRPYELENLGMLRIGHQEIVLEAVENLRNFHYHLKNDNLQFMALHVATAAKNLHRELARNHAESTKIDTRILHDITRTIATLKPLVGSLERTPFRKQEMYREYCGNVLKCGLELATIAHRDRFALQPVPAIRQSAERLENLANFVIQDISDPMVLQPASLNLVTLKKRESELGFNIESSYNGIHRVTDIKYNSPAHNSGKIEDGDEIVQINYQTVVGWQHRTVLEHLREALPDVVLTVDKRPKHTKMFGQIYMQPYRLPSKKRNMAARWAAQMPSPRAAFLTLDTEQLATGGTGSAVPDPSKSLSSEKREVLTKANPVSSASDSDSSCSDIPTPTDPKLAAREIRLYYPKPRALLQRRNTICGCEYLSLKNSDLVVPSWHERKPGIGSPTNCDPGSPSIRDKSISFGYGLEMAARPTTCIGIAGDTSTDKARRMFHEARKLKQLTEDSQREFLVDRYKPGVSKVVRFDAKEDYVMKNEKFICNVENTILETFEPIPFADEGDEDA [chain 1 K282D], the ratio to parent was 0.31.

In the next test the parent is B1. The test is described as follows: GST pull-down, immunoblot quantification; S2 cells; only Flag-CNK2–549 and GST-HYP co-expressed; anti-Flag blot; parent: 1.
In the case of chain 1 AYINIAEWTPDQVTDWIKGLDESMKGYLYEFSKQEIGGRALLNIRPYELENLGMLRIGHQEIVLEAVENLRNFHYHLKNDNLQFMALHVATAAKNLHRELARNHAESTKIDTRILHDITRTIATLKPLVGSLERTPFRKQEMYREYCGNVLKCGLELATIAHRDRFALQPVPAIRQSAERLENLANFVIQDISDPMVLQPASLNLVTLKKRESELGFNIESSYNGIHRVTDIKYNSPAHNSGKIEDGDEIVQINYQTVVGWQHRTVLEHLREALPDVVLTVDKRPKHTKMFGQIYMQPYRLPSKKRNMAARWAAQMPSPRAAFLTLDTEQLATGGTGSAVPDPSKSLSSEKREVLTKANPVSSASDSDSSCSDIPTPTDPKLAAREIRLYYPKPRALLQRRNTICGCEYLSLKNSDLVVPSWHERKPGIGSPTNCDPGSPSIRDKSISFGYGLEMAARPTTCIGIAGDTSTDKARRMFHEARKLKQLTEDSQREFLVDRYKPGVSKVVRFDAKEDYVMKNEKFICNVENTILETFEPIPFADEGDEDA [chain 1 K282D], the ratio to parent was 0.4.

The variants in another test derive from B1. The test is described as follows: GST pull-down, immunoblot quantification; S2 cells; GST-HYP + RRKM co-expressed; anti-Flag (CNK) blot; parent: 1. This is another data set of the same source.
As to chain 1 AYINIAEWTPDQVTDWIKGLDESMKGYLYEFSKQEIGGRALLNIRPYELENLGMLRIGHQEIVLEAVENLRNRHYHLKNDNLQFMALHVATAAKNLHRELARNHAESTKIDTRILHDITRTIATLKPLVGSLERTPFRKQEMYREYCGNVLKCGLELATIAHRDRFALQPVPAIRQSAERLENLANFVIQDISDPMVLQPASLNLVTLKKRESELGFNIESSYNGIHRVTDIKYNSPAHNSGKIEDGDRIVQINYQTVVGWQHRTVLEHLREALPDVVLTVKKRPKHTKMFGQIYMQPYRLPSKKRNMAARWAAQMPSPRAAFLTLDTEQLATGGTGSAVPDPSKSLSSEKREVLTKANPVSSASDSDSSCSDIPTPTDPKLAAREIRLYYPKPRALLQRRNTICGCEYLSLKNSDLVVPSWHERKPGIGSPTNCDPGSPSIRDKSISFGYGLEMAARPTTCIGIAGDTSTDKARRMFHEARKLKQLTEDSQREFLVDRYKPGVSKVVRFDAKEDYVMKNEKFICNVENTILETFEPIPFADEGDEDA [chain 1 F73R, chain 1 E249R], the ratio to parent worked out at 0.22.
Still for that read-out and setting: under chain 1 AYINIAEWTPDQVTDWIKGLDESMKGYLYEFSKQEIGGRALLNIRPYELENLGMLRIGHQEIVLEFVENLRNRHYHLKNDNLQFMALHVATAAKNLHRELARNHAESTKIDTRILHDITRTIATLKPLVGSLERTPFRKQEMYREYCGNVLKCGLELATIAHRDRFALQPVPAIRQSAERLENLANFVIQDISDPMVLQPASLNLVTLKKRESELGFNIESSYNGIHRVTDIKYNSPAHNSGKIEDGDEIVQINYQTVVGWQHRTVLEHLREALPDVVLTVKKRPKHTKMFGQIYMQPYRLPSKKRNMAARWAAQMPSPRAAFLTLDTEQLATGGTGSAVPDPSKSLSSEKREVLTKANPVSSASDSDSSCSDIPTPTDPKLAAREIRLYYPKPRALLQRRNTICGCEYLSLKNSDLVVPSWHERKPGIGSPTNCDPGSPSIRDKSISFGYGLEMAARPTTCIGIAGDTSTDKARRMFHEARKLKQLTEDSQREFLVDRYKPGVSKVVRFDAKEDYVMKNEKFICNVENTILETFEPIPFADEGDEDA [chain 1 A66F, chain 1 F73R] stands 0.58.

In another test the parent is B1. The test is described as follows: GST pull-down, immunoblot quantification; S2 cells; only Flag-CNK2–549 and GST-HYP co-expressed; anti-Flag blot; parent: 1. This is another data set of the same source.
Take chain 1 AYINIAEWTPDQVTDWIKGLDESMKGYLYEFSKQEIGGRALLNIRPYELENLGMLRIGHQEIVLEAVENLRNRHYHLKNDNLQFMALHVATAAKNLHRELARNHAESTKIDTRILHDITRTIATLKPLVGSLERTPFRKQEMYREYCGNVLKCGLELATIAHRDRFALQPVPAIRQSAERLENLANFVIQDISDPMVLQPASLNLVTLKKRESELGFNIESSYNGIHRVTDIKYNSPAHNSGKIEDGDRIVQINYQTVVGWQHRTVLEHLREALPDVVLTVKKRPKHTKMFGQIYMQPYRLPSKKRNMAARWAAQMPSPRAAFLTLDTEQLATGGTGSAVPDPSKSLSSEKREVLTKANPVSSASDSDSSCSDIPTPTDPKLAAREIRLYYPKPRALLQRRNTICGCEYLSLKNSDLVVPSWHERKPGIGSPTNCDPGSPSIRDKSISFGYGLEMAARPTTCIGIAGDTSTDKARRMFHEARKLKQLTEDSQREFLVDRYKPGVSKVVRFDAKEDYVMKNEKFICNVENTILETFEPIPFADEGDEDA [chain 1 F73R, chain 1 E249R]: the ratio to parent amounted to 0.06.
On the same count and under the same terms, under chain 1 AYINIAEWTPDQVTDWIKGLDESMKGYLYEFSKQEIGGRALLNIRPYELENLGMLRIGHQEIVLEFVENLRNRHYHLKNDNLQFMALHVATAAKNLHRELARNHAESTKIDTRILHDITRTIATLKPLVGSLERTPFRKQEMYREYCGNVLKCGLELATIAHRDRFALQPVPAIRQSAERLENLANFVIQDISDPMVLQPASLNLVTLKKRESELGFNIESSYNGIHRVTDIKYNSPAHNSGKIEDGDEIVQINYQTVVGWQHRTVLEHLREALPDVVLTVKKRPKHTKMFGQIYMQPYRLPSKKRNMAARWAAQMPSPRAAFLTLDTEQLATGGTGSAVPDPSKSLSSEKREVLTKANPVSSASDSDSSCSDIPTPTDPKLAAREIRLYYPKPRALLQRRNTICGCEYLSLKNSDLVVPSWHERKPGIGSPTNCDPGSPSIRDKSISFGYGLEMAARPTTCIGIAGDTSTDKARRMFHEARKLKQLTEDSQREFLVDRYKPGVSKVVRFDAKEDYVMKNEKFICNVENTILETFEPIPFADEGDEDA [chain 1 A66F, chain 1 F73R] stands 0.12.

(Values after publication PMC11257983 (2024).)
